Reference: paper PMC7844235, “Redirecting substrate regioselectivity using engineered ΔN123-GBD-CD2 branching sucrases for the production of pentasaccharide repeating units of S. flexneri 3a, 4a and 4b haptens” (Scientific Reports, 2021)
Positions count from the first letter of the chain named. Names may count otherwise.

B1: ΔN123-GBD-CD2 branching sucrase (Leuconostoc mesenteroides) (protein)
chain: QAGHYITKNGNDWQYDTNGELAKGLRQDSNGKLRYFDLTTGIQAKGQFVTIGQETYYFSKDHGDAQLLPMVTEGHYGTITLKQGQDTKTAWVYRDQNNTILKGLQNINGTLQFFDPYTGEQLKGGVAKYDDKLFYFESGKGNLVSTVAGDYQDGHYISQDGQTRYADKQNQLVKGLVTVNGALQYFDNATGNQIKNQQVIVDGKTYYFDDKGNGEYLFTNTLDMSTNAFSTKNVAFNHDSSSFDHTVDGFLTADTWYRPKSILANGTTWRDSTDKDMRPLITVWWPNKNVQVNYLNFMKANGLLTTAAQYTLHSDQYDLNQAAQDVQVAIERRIASEHGTDWLQKLLFESQNNNPSFVKQQFIWNKDSEYHGGGDAWFQGGYLKYGNNPLTPTTNSDYRQPGNAFDFLLANDVDNSNPVVQAENLNWLHYLMNFGTITAGQDDANFDSIRIDAVDFIHNDTIQRTYDYLRDAYQVQQSEAKANQHISLVEAGLDAGTSTIHNDALIESNLREAATLSLTNEPGKNKPLTNMLQDVDGGTLITDHTQNSTENQATPNYSIIHAHDKGVQEKVGAAITDATGADWTNFTDEQLKAGLELFYKDQRATNKKYNSYNIPSIYALMLTNKDTVPRMYYGDMYQDDGQYMANKSIYYDALVSLMTARKSYVSGGQTMSVDNHGLLKSVRFGKDAMTANDLGTSATRTEGLGVIIGNDPKLQLNDSDKVTLDMGAAHKNQKYRAVILTTRDGLATFNSDQAPTAWTNDQGTLTFSNQEINGQDNTQIRGVANPQVSGYLAVWVPVGASDNQDARTAATTTENHDGKVLHSNAALDSNLIYEGFSNFQPKATTHDELTNVVIAKNADVFNNWGITSFEMAPQYRSSGDHTFLDSTIDNGYAFTDRYDLGFNTPTKYGTDGDLRATIQALHHANMQVMADVVDNQVYNLPGKEVVSATRAGVYGNDDATGFGTQLYVTNSVGGGQYQEKYAGQYLEALKAKYPDLFEGKAYDYWYKNYANDGSNPYYTLSHGDRESIPADVAIKQWSAKYMNGTNVLGNGMGYVLKDWHNGQYFKLDGDKSTLPQI
B2: ΔN123-GBD-CD2 branching sucrase (Leuconostoc mesenteroides; F2136L/W2135S) (protein)
chain: B1 chain with W377S, F378L
B3: ΔN123-GBD-CD2 branching sucrase (Leuconostoc mesenteroides; F2163G) (protein)
chain: B1 chain with F405G

Substrate: OC[C@H]1O[C@@](CO)(O[C@H]2O[C@H](CO)[C@@H](O)[C@H](O)[C@H]2O)[C@@H](O)[C@@H]1O
Assay: sucrose hydrolysis, HPLC-CAD, Michaelis-Menten fit
Format: biochemical, Leuconostoc mesenteroides
Settings: sucrose as sole substrate, 50 mM sodium acetate pH 5.1, 30 °C
Text: sucrose hydrolysis, HPLC-CAD, Michaelis-Menten fit on ΔN123-GBD-CD2 branching sucrase

Protein	Km [mM]	Vmax [µmol/min/mg]	kcat [s⁻¹]
B1	30.5 ± 7.2	77.5	162 ± 12.7
B2	8.8 ± 1.0	17.7	36.9 ± 0.9
B3	7.0 ± 1.2	16.8	35.1 ± 0.9
